Results reported in patent US10156559B2, “Lipocalin fusion partners” (Fred Hutchinson Cancer Research Center, priority 2012, dated 2018).

B1: HMOX1: cytoplasmic enzyme, HMOX1, expressed as a Scn fusion and cleaved from Scn (protein, UniProt P09601 1-288, looked up)
Heme oxygenase 1: MERPQPDSMPQDLSEALKEATKEVHTQAENAEFMRNFQKGQVTRDGFKLVMASLYHIYVALEEEIERNKESPVFAPVYFPEELHRKAALEQDLAFWYGPRWQEVIPYTPAMQRYVKRLHEVGRTEPELLVAHAYTRYLGDLSGGQVLKKIAQKALDLPSSGEGLAFFTFPNIASATKFKQLYRSRMNSLEMTPAVRQRVIEEAKTAFLLNIQLFEELQELLTHDTKDQSPSRAPGLRQRASNKVQDSAPVETPRGKPPLNTRSQAPLLRWVLTLSFLVATVAVGLYAM
modifications: expressed as Scn fusion, cleaved
B2: Adv2: cytoplasmic viral protein Adv2 expressed as a Scn fusion and cleaved from Scn (protein, UniProt P68978 18-159, looked up)
Early E3 18.5 kDa glycoprotein: AKKVEFKEPACNVTFKSEANECTTLIKCTTEHEKLIIRHKDKIGKYAVYAIWQPGDTNDYNVTVFQGENRKTFMYKFPFYEMCDITMYMSKQYKLWPPQKCLENTGTFCSTALLITALALVCTLLYLKYKSRRSFIDEKKMP
modifications: expressed as Scn fusion, cleaved

Experiment: SDS PAGE analysis of Scn fusion protein before and after cleavage
Type: physicochemical
Settings: fusion protein cleaved from Scn, expressed in mammalian cell culture
Description: The cloned knottin or library was cotransfected into HEK293 cells and media was collected as described (“Daedalus: A Robust, Turnkey Platform for Rapid Production of Decigram Quantities of Active Recombinant Proteins in Human Cell Lines Using Novel Lentiviral Vectors.” Bandaranayake A. D., et al., Nucleic Acids Res. (2011) 39(21):e143). Fusion protein was isolated using nickel IMAC and cleaved with recombinant TEV protease. Excess siderocalin was removed via size exclusion chromatography, a process which also allowed the buffer to be switched to 10 mM ammonium formate. The knottin containing fractions were then lyophilized.
(§1) FIG. 19 depicts the expression of a Scn fusion with a cytoplasmic viral protein Adv2 and the corresponding SDS PAGE analysis according to one aspect of the present disclosure. […] Additionally this fusion protein has further utility because it can be used to raise antibodies against the viral antigen in rats, mice or rabbits using the corresponding Scn ortholog.
as §1, with “21” for “19”, “knottin protein, Imperatoxin,” for “cytoplasmic viral protein Adv2”, “Additionally,” for “Additionally”

Row | Molecule | stability of the protein after separation from Scn
1 | B1 | stable even after separation from Scn
2 | B2 | stable even after separation from Scn
